41 sequences from the nanobody polyreactivity screen of Harvey et al. (2022) can be followed below.

This series is described as follows: yeast display, Sf9 membrane polyspecificity reagent, FACS + sequencing; frameworks hold sequencing errors. In short, it runs like this:
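Using colony PCR, genes from sorted yeast display clones were amplified, then sequenced on MiSeq at 2 × 250 and filtered by CDR length. The clones had been stained with 10% biotinylated, detergent-solubilized Sf9 membrane reagent for 1 hour at 4 °C and sorted by FACS into low and high (top ~1%) gates on anti-HA and streptavidin fluorescence. Polyreactivity labels come from the gate of origin.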
Take “QVQLVESGGGLVQAGGSLRLSCAASGSTFDYYVMGWYRQAPGKERELVAAISHNAGSTYYADSVKGRFTISRDNAKNTVYLQMNSLKPEDTAVYYCAAPDYRNGVRYPLDYWGQGTQVTVSS”: the “polyreactivity (PSR sort gate)” value is given as “low polyreactivity”. “QVQLVESGGGLVQAGGSLRLSCAASGSTFEDYSMGWYRQAPGKERELVAAISHIGGSTYYADSVKGRFTISRDNAKNTVYLQMNSLKPDDTAVYYCAKGGFSSKFDYWGQGTQVTVSS”: the “polyreactivity (PSR sort gate)” value is recorded as “low polyreactivity”.

Regarding “QVQLVESGGGLVQAGGSLRLSCAASGSTFEGNAMGWYRQAPGKERELVAAISSGGRTYYADSVKGRFTISRDNAKNTVYLQMNSLKPEDTAVYYCAAYVRRGFDWGQGTQVTVSS”, the “polyreactivity (PSR sort gate)” value is “high polyreactivity”. The value for “QVQLVESGGGLVQAGGSLRLSCAASGSTFEGNVMGWDRQATGKERELVATITGSGGRTYADSVKGRFTISRDNAKNTVYLQMNSLKPEDTAVYYCYAVSTASDEYDYWGQGTQVTVSS” was “low polyreactivity”; that for “QVQLVESGGGLVQAGGSLRLSCAASGSTFEKNAMGWYRQAPGKEREFVAAISRRGGSTYYADSVKGRFTISRDNAKNTVYLQMNSLKPEDTAVYYCAAQQLTWYSYRGDYWGQGTQVTVSS” was “high polyreactivity”. “QVQLVESGGGLVQAGGSLRLSCAASGSTFEPYAMGWYRQAPGKERELVAAISSGGSTSYADSVKGRFTISRDNAKNTVYLQMNSLKPEDTAVYYCAKRWRSYRHEDYGYWGQGTQVTVSS”: the “polyreactivity (PSR sort gate)” value is on record as “low polyreactivity”.

Take “QVQLVESGGGLVQAGGSLRLSCAASGSTFEPYVMGWYRQAPGKERELVAAITYSGGRTYYADSVKGRFTISRDNAKNTVYLQMNSLKPEDTAVYYCAKVDRSYGYSRYWFKYGYWGQGTQVTVSS”: the “polyreactivity (PSR sort gate)” value was “low polyreactivity”. As for “QVQLVESGGGLVQAGGSLRLSCAASGSTFEQYAMGGYRQAPGKEKELDAAISGSGTRTYYADSVKGRFTISRDNAKNTVYLQMNSLKAEDTAVYYCAARFSYPAILQAYYHWGQGTQVTVSS”, the “polyreactivity (PSR sort gate)” value was “high polyreactivity”. Then “QVQLVESGGGLVQAGGSLRLSCAASGSTFESNAMGWYRQAPGKERELVAAISRGGNTYYADSVKGRFTISRDNAKITVYLQMNSLKPEDTAVYYCNVDRGKPVPPSEYWGQGTQVTVSS”, with “low polyreactivity”; and “QVQLVESGGGLVQAGGSLRLSCAASGSTFESNTMGWYSQAPGKERELVAAISYSGGRTYYADSVKGRFTISRDNAKNTVYLQMNSLKPEDTAVYYCAARWSVSYQYWGQGTQVTVSS”, with “high polyreactivity”. Regarding “QVQLVESGGGLVQAGGSLRLSCAASGSTFETNAMGWYRQAPGTERELVAAIRWSTGNTYYADSVKGRFTISRDNAKNTVYLQMNSLKPEDTAVYYCAAYKGKHYNEGYWGQGTQVTVSS”, the “polyreactivity (PSR sort gate)” value is “low polyreactivity”.

Consider “QVQLVESGGGLVQAGGSLRLSCAASGSTFEYNSMGWYRQAPGKERELVGSSTNYADSVKGRFTISRDNAKNTVYLQMNSLLPEYTAVYYCAREQGVNRNHDYWGQGTQVTVSS”, for which the “polyreactivity (PSR sort gate)” value is given as “low polyreactivity”.

On to “QVQLVESGGGLVQAGGSLRLSCAASGSTFEYYAMGWYRQAPGKERELVAAISWSGGSTYYADSVKGRFTISRDNAKNTVYLQMNSLKPEDTAVYDCATDTGTSFYGINYGYDYWGQGTQVTVSS”, for which the “polyreactivity (PSR sort gate)” value is given as “low polyreactivity”.

Turning to “QVQLVESGGGLVQAGGSLRLSCAASGSTFFDYAMGWYRKAPGKERELVAAISRSGDTNYADSVKGRFTISRDNAKNTVYLQMKSLKPEDTAVYYCAKDWAYRRHWVGFYYWGQGTQVTVSS”, the “polyreactivity (PSR sort gate)” value was “low polyreactivity”. In the case of “QVQLVESGGGLVQAGGSLRLSCAASGSTFFEYTMGWYRRAPGKEREFVADIRGRDGSTSYADSVKGRFTISRDNAKNTVYLQMNSLKPEDTAVYYCATEYFPQYQSTGWYDYWGQGTQVTVSS”, the “polyreactivity (PSR sort gate)” value is “low polyreactivity”. The value for “QVQLVESGGGLVQAGGSLRLSCAASGSTFFGYAMGRYRQAPGKERELVAAISYRGGSTYYADSVKGRFTISRDNAKNTVYLQMNSLKPEDTAVYYCAATHGPTGSYYWGQGTQVTVSS” was “high polyreactivity”; that for “QVQLVESGGGLVQAGGSLRLSCAASGSTFFGYDMGWYRQAPGKERELVATINSGGSTYYADSVKGRFTISRDNAKNTVYLQMNSLKPEDTAVYYCAARPSYLYPYDRTGEYDYWGQGTQVTVSS” was “high polyreactivity”; that for “QVQLVESGGGLVQAGGSLRLSCAASGSTFFHYVMGWYRQAPGKEREVVAAIRWSGGRTRYADSVKRRFTISRDNAKITVYLQMNSLIPEDTAVFYCAAYRLSKPFYKYDYWGQGTQVTVSS” was “high polyreactivity”. As for “QVQLVESGGGLVQAGGSLRLSCAASGSTFFHYVMGWYRQAPWKERELVAAIRWSGGRTRYADSVKGRFTISRDNAKNTVYLQMNSLKPEDTAVYYCAAYRLSKPFYKYDYWGQGTQVTVSS”, the “polyreactivity (PSR sort gate)” value is listed as “high polyreactivity”. Turning to “QVQLVESGGGLVQAGGSLRLSCAASGSTFFIWNAMGWYRQAPGKERELVAGITRGGSTNYADSVKGRFTISRDNAKNTVYLQMNSLKPEDTAVYYCAADGTVVYGYDYWGQGTQVTVSS”, the “polyreactivity (PSR sort gate)” value is “low polyreactivity”. For the sequence “QVQLVESGGGLVQAGGSLRLSCAASGSTFFIYAMGWYRQAPGKERELVAAISGSGGTTYYADSVKGRFTISRDNAKNTVYLQMNSLKPEDTAVYYCNKDYYPGSYDYWGQGTQVTVSS”, the “polyreactivity (PSR sort gate)” value is on record as “low polyreactivity”. On to “QVQLVESGGGLVQAGGSLRLSCAASGSTFFLNAMGWYRQAPGKESEFVAAISYTSTSTYYADSVKGRFTISRDNAKNTVYLQMNSLKPEDTAVYYCAVDAAGWYYTVETGDYAEDYWGQGTQVTVSS”, for which the “polyreactivity (PSR sort gate)” value was “low polyreactivity”. For the sequence “QVQLVESGGGLVQAGGSLRLSCAASGSTFFLYAMGWYRQAPGKERELVAAINYIGGTYYADSVKGRFTISRDNAKNTVYLQMNSLKPEDTAVYYCAASYVGTIAGMDYWGQGTQVTVSS”, the “polyreactivity (PSR sort gate)” value is recorded as “low polyreactivity”. As to “QVQLVESGGGLVQAGGSLRLSCAASGSTFFLYAMGWYRQAPGKERELVAVITWRGGRTYYADSVKGRFTISRDNAKNTVYLQMNSMKPEDTAVYYCAAEYYWPVKYYYWGQGTQVTVSS”, the “polyreactivity (PSR sort gate)” value was “high polyreactivity”. Turning to “QVQLVESGGGLVQAGGSLRLSCAASGSTFFNYAMGWYRQAPGKERELVAAITGSGGRTYYADSVKGRFTISRDNAKNTVYLQMNSLKPEDTAVYYCAASATYDPHDYWGQGTQVTVSS”, the “polyreactivity (PSR sort gate)” value is “high polyreactivity”. Then “QVQLVESGGGLVQAGGSLRLSCAASGSTFFPNGMGWYRQAPGKERELVAAITQDGGSTYYADSVKGRFTISRDKAKNTVYLQMNSLKPEDTAVYYCAASAGPYYEYGYWGQGTQVTVSS”, with “low polyreactivity”; and “QVQLVESGGGLVQAGGSLRLSCAASGSTFFPYAMGWYRPAPGKERELVAAIRWSGGRTYYADSVKGRFTISRDNAKNTVYLQMNSLKPEDTAVYYCAADKYLDYDYWGQGTQVTVSS”, with “high polyreactivity”; and “QVQLVESGGGLVQAGGSLRLSCAASGSTFFPYAMGWYRQAPGKERELVATINYSGGGTYYADSVKGRFTISRDNAKNTVYLQMNSLKPEDTAVYYCANTLARFDRGYYWGQGTQVTVSS”, with “low polyreactivity”. The value for “QVQLVESGGGLVQAGGSLRLSCAASGSTFFQYAMGWYRPAPGKERELVAAITTSGGRTYYADSVKGRFTISRDNAKNTVYLQMNSLKPEDTAVYYCAGYNYWGQGTQVTVSS” was “high polyreactivity”; that for “QVQLVESGGGLVQAGGSLRLSCAASGSTFFRNAMGWYRQAPGKERELVAGITSGVTTYYADSVKGRFTISRDNAKNTVYLQMNSLKPEDTAVYYCAVYWRGRGAFTYGSWGQGTQVTVSS” was “high polyreactivity”; that for “QVQLVESGGGLVQAGGSLRLSCAASGSTFFRYAMGLYRQAPGKEREFVAAITSSGGNTYYADSVKGRFTISRDNAKNTVYLQMNSLKPEDTAVYYCAAVWYSPYVKYNYWGQGTQVTVSS” was “low polyreactivity”.

As for “QVQLVESGGGLVQAGGSLRLSCAASGSTFFRYAMGWYRQAPGKEREFVAAISKRGGSTHYADSVKGRFTISRDNAKNTVYLQMNSLKPEDTAVYYCAASSFTSSYNYWGQGTQVTVSS”, the “polyreactivity (PSR sort gate)” value is “high polyreactivity”.

With “QVQLVESGGGLVQAGGSLRLSCAASGSTFFSNTMGWYRQAPGIERELVAAITSRGGRTYYADSVKGRFTISRDNAKNSVYLQMNSLKPEDTAVYYCAARFVLHGVYLKFYWGQGTQLTVSS”, the “polyreactivity (PSR sort gate)” value is listed as “high polyreactivity”. Take “QVQLVESGGGLVQAGGSLRLSCAASGSTFFSYDMGWYRQAPGKERELVATISTSVGRTYYADSVKGRFTISRDNAKNTVYLQMNSLKPEDTAVYYCATVGYLYTPVVVTWWDWGDYWGQGTQVTVSS”: the “polyreactivity (PSR sort gate)” value is listed as “low polyreactivity”. Turning to “QVQLVESGGGLVQAGGSLRLSCAASGSTFFSYVMGWYRQAPGKERELVAAISNGGSTYYADSVKGRFTISRDNAKNSVYLQMNSLKPEDTAVYYCAAGGRRKRGNYWGQGTQVTVSS”, the “polyreactivity (PSR sort gate)” value was “high polyreactivity”. Consider “QVQLVESGGGLVQAGGSLRLSCAASGSTFFTNVKGWYRQAPGKERELVAVIRWRGSDTYYADSVKGRFTISRDNAKNTVYLQMKSLKPEDTAFYYCNAKESFYPTTGEQGYSYAYWGQGTQLTVSS”, for which the “polyreactivity (PSR sort gate)” value is “low polyreactivity”. The value for “QVQLVESGGGLVQAGGSLRLSCAASGSTFFTYTMGWYRQAPGKERELVAAISSGGSTYYADSVKGRFTISRDNAKNTVYLQMNSLKPEDTAVYYLLRGQGTQVTVSS” was “low polyreactivity”; that for “QVQLVESGGGLVQAGGSLRLSCAASGSTFFVNAMGWYRQAPGKERELVASITVSSGRTYYADSVKGRFTISRDNAKNTVYLQMNSLKPEDTAVYYCAARHLYWRREGYYWGQGYQVTVSS” was “high polyreactivity”; that for “QVQLVESGGGLVQAGGSLRLSCAASGSTFFWYAMGWYRQEPGKERELVAAINWRGDRTYYADSVKGRFTISRDNAKNTVYLQMNSLKPEDTAVYYCNAVRVHAYSTGEYGYWGQGTQVTVSS” was “high polyreactivity”.

As to “QVQLVESGGGLVQAGGSLRLSCAASGSTFFYYAMGWYRQAPGKERELVAAITSSGGRTYYADSVKGRFTISRDNAKNTVYLQMNSLKPEDTAVYYCAARDYRQSRYEYWGQGTQVTVSS”, the “polyreactivity (PSR sort gate)” value is reported as “high polyreactivity”. The value for “QVQLVESGGGLVQAGGSLRLSCAASGSTFGANAMGWYRQAPGKEREFVAAISGSGTTTYYADSVKGRFTISRDNAKNTVYLQINSLKPEDTAVYYCAKTRKAHWLEYWGQGTQVTVSS” was “low polyreactivity”.
